# Read-outs that look alike come from different tables or passages of the source.
# What was measured:
# [1] = molecular target: mouse IL-21 receptor protein with the Fc region of human IgG1 (mouse) (UniProt Q9JHX3); assay: SPR; Biacore 8K; receptor immobilised on CM5 chip by amine coupling, 25 °C, PBS-P running buffer; analytes with 5% DMSO injected serially; steady-state affinity model
# [2] = molecular target: mouse IL-21 receptor protein with the Fc region of human IgG1 (mouse) (UniProt Q9JHX3); assay: as above; remark: listed apart in the source
substance,measurement,setting,value
salivaricin A2 (peptide),Kd,[1],12.6 µM
same,Kd,[2],29.4 µM
